Here are results for three molecules from patent publication US9200040B2, “Specific binding agents of human angiopoietin-2” (Amgen Inc., priority 2001, dated 2015).

In one data set the target is T1, huAng2 (Homo sapiens, UniProt O15123).
T1 construct: purchased R&D Systems BNO12103A
T1 sequence (O15123 68-496 limits assumed): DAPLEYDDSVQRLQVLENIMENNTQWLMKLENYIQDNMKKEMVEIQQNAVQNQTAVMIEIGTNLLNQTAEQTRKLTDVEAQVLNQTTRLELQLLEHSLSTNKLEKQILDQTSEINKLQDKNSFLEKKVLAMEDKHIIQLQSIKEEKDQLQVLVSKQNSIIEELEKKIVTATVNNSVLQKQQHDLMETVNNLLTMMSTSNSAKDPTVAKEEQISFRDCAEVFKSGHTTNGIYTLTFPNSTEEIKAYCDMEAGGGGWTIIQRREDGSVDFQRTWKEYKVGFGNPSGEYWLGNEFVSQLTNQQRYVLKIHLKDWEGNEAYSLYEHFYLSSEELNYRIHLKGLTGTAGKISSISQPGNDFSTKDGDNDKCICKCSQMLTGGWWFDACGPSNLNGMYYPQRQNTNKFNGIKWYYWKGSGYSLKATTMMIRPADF
Briefly: BIAcore binding to huAng2 (Example 9). As to conditions: Table 8. The method, then:
Six samples of anti-Ang2 peptibodies were tested for their binding activity to huAng2 (R&D Systems, BNO12103A) on BIAcore. Protein G was immobilized to a CM5 chip according to the standard amine-coupling protocol (BIAcore Inc.), and the peptibodies were then injected over a protein G surface for capturing (RL˜100 Ru). To test binding between hAng2 and the captured peptibody, 0.3 nM to 40 nM of huAng2 was injected over the captured peptibody surfaces, and binding sensorgrams were analyzed using BIAevaluation 3.0 (BIAcore Inc.).
(Surface plasmon resonance follows binding to a sensor surface in real time, without labels.)

The test system of data set [1] is VEGF-induced angiogenesis. The data set can be described thus: Corneal angiogenesis model. Format: in vivo. The procedure:
Ang-2 peptibody CON4(C) was evaluated in the corneal model of angiogenesis in rats. Angiogenesis was induced by implanting a VEGF- (or BSA control) soaked nylon disc into the corneal stroma (n=8/group). Peptibody TN8CON4-C was administered by sub-cutaneous injection at 1.0 or 0.1 mg/rat/day for seven days. Two other groups of animals were treated with the same dose of negative control peptibody 4883. All groups were pre-treated with a single loading dose of either 3.0 or 0.3 mg that was three times the maintenance dose of 1.0 or 0.1 mg (see figure). After seven days of treatment, two vascular endpoints were determined from each digital image of the rat cornea: the number of vessels intersecting the mid-point between the disc and the limbus, and the blood vessel area.

Another data set has as its system A431 tumor. As to conditions: p<0.0001.
Data set [2] concerns the target T2, hAng-1 (Homo sapiens, UniProt Q15389).
T2 sequence (Q15389 16-498): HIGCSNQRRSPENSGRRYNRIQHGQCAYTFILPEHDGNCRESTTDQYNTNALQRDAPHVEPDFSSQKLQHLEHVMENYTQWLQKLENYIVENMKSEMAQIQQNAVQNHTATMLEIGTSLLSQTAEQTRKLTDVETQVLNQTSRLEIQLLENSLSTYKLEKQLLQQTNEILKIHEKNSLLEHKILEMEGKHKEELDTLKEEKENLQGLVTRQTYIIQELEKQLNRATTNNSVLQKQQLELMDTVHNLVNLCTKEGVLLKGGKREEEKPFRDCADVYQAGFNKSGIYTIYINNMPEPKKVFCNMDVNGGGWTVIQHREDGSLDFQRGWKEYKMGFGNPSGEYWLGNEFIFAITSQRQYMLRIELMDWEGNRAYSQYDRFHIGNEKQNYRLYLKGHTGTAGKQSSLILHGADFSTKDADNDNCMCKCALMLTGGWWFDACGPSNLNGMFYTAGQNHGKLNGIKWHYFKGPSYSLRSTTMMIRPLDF
Briefly: Neutralization ELISA (Example 2). Format: binding. The following applies: Table 5; about 1 nM Tie-2-Fc. (In an ELISA, binding on a coated surface is turned into a signal by an enzyme label.)

Data set [3] addresses T2, hAng-1. Briefly: Affinity ELISA. Format: binding. The following applies: Table 5.
The target of the next data set is T3, hAng-2 (Homo sapiens, UniProt O15123).
T3 construct: conditioned media of human 293T cells transfected with full length human Ang-2 DNA; made in house; host or cells: conditioned media
T3 sequence (O15123 19-496): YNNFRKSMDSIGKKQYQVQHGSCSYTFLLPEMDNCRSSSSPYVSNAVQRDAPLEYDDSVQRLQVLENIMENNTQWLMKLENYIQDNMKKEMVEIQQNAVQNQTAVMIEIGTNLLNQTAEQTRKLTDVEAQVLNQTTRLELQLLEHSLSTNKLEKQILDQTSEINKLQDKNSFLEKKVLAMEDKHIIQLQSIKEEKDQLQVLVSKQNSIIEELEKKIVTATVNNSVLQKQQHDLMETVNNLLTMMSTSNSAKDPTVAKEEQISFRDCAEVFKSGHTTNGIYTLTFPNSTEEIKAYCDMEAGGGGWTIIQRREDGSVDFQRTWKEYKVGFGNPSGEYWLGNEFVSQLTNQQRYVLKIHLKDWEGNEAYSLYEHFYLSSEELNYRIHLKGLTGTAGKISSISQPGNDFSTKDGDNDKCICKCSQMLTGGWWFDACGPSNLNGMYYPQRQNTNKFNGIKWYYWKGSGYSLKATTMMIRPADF
Briefly: Affinity BIAcore (Example 2). Format: binding. The following applies: Table 6. The procedure: (§1) Binding assays were carried out by first capturing about 100 Ru of each candidate anti-Ang-2 peptibody to the immobilized Protein G, after which various concentrations (0-100 nM) of huAng-2 or mAng-2 were injected over the bound antibody surface at a flow rate of 50 μl/min for 3 minutes. Peptibody binding kinetic parameters including ka (association rate constant), kd (dissociation rate constant) and KD (dissociation equilibrium constant) were determined using the BIA evaluation 3.1 computer program (Biacore, Inc.). Lower dissociation equilibrium constants indicated greater affinity of the peptibody for Ang-2.

A further data set deals with T4, mAng-2 (Mus musculus, UniProt O35608).
T4 construct: made in house
T4 sequence (O35608 19-496): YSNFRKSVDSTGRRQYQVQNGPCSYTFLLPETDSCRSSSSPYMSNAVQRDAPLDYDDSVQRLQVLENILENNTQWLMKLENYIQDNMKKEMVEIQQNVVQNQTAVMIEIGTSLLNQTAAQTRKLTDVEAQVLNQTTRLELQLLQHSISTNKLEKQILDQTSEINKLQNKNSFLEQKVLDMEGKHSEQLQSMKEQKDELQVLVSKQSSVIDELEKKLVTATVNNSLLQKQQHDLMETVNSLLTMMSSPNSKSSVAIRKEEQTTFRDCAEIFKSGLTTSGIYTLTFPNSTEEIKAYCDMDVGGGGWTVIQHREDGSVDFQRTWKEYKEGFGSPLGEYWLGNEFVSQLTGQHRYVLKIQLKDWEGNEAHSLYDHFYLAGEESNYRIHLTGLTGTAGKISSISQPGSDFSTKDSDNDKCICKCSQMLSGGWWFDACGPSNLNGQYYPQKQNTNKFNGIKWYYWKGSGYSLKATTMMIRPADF
The data set can be described thus: Affinity BIAcore (Example 2). The following applies: Table 6. Type of data set: binding, murine. The procedure: as §1

Another data set relates to Colo-205 tumor. The procedure:
Female nude mice were injected subcutaneously with 2×10^6 Colo-205 cells plus Matrigel (2:1) on study day 0. At day 3, the Ang-2 peptibodies L1-7-N, L1-21-N, Con4-C, and 2×Con4-C were administered subcutaneously at the dose of […], twice a week.
Female nude mice were injected subcutaneously with 2×10^6 Colo-205 cells plus Matrigel (2:1) on study day 0.
Female nude mice were injected subcutaneously with 2×10^6 Colo-205 cells plus Matrigel (2:1) on study day 0. At day 3, Ang-2 peptibody 2×Con4-C or control peptibody were administered subcutaneously at the dose of 350 μg/day. Tumors from groups treated with control peptibody (as described in Table 5) were harvested either at Day 14 (size-matched control) or Day 18 (time-matched control). Tumors from 2×Con4(C) treated group were then harvested at Day 18. Tumor volumes were recorded at regular intervals, as shown.
Female nude mice were injected subcutaneously with 2×10^6 Colo-205 cells plus Matrigel (2:1) on study day 0. Treatment with 350 μg/mouse, s.c. twice a week, of the Ang-2 peptibody 2×Con4-C, or equivalent control peptibody started either at study day 3, 10 or 15. […] The results are set forth in FIG. 8 (body weights not shown).
Female nude mice were injected subcutaneously with 2×10^6 Colo-205 cells plus Matrigel (2:1) on study day 0. At study day 14, treatments were started with a) 350 μg/mouse, s.c. twice a week, of the Ang-2 peptibody 2×Con4-C, b) 20 mg/kg qwx3 i.p. of taxotere, or c) a combination of both.
Female nude mice were injected subcutaneously with 2×10^6 Colo-205 cells plus Matrigel (2:1) on study day 0. At study day 14 started treatments with a) 350 μg/mouse, s.c. twice a week, of the Ang-2 peptibody 2×Con4-C, b) 50 mg/kg qdx5 i.p. of 5-FU, or c) a combination of both.

Entries after “also recorded” stand apart in the source; their conditions may differ. Like-named read-outs stand apart in the source and are kept apart here. Primed or numbered codes have the meaning given here. Where no end group is shown, it is not given here. [ ]: non-standard residue; d: D form. Fc(5) = non-antigen-binding fragment of an antibody (vehicle) fused to the peptide

Experimental for A431 tumor: The doses of peptibody used were 1000, 200, 40 and 8 ug/mouse/day. A total of 20 doses was given to all animals. Tumor volumes and body weights were recorded three times/week. At the end of the study, animals were sacrificed, and their sera were collected for measuring peptibody levels by ELISA. Tumors and a panel of normal tissues were collected from all groups.
Female nude mice were injected subcutaneously with 1×10^7 A431 cells on study day 0.

In the data set with huAng2, “M-Fc-GGGGGAQQEECEWDPWTCEHMLE (M[Fc]GGGGGAQQEECEWDPWTCEHMLE; cysteine pairing not given here) [Con4 (C)]” came in with a ka of 530000 M⁻¹ s⁻¹ and a kd of 0.0002 s⁻¹. Also, in data set [1] (1.0 or 0.1 mg/rat/day s.c. for seven days), the “overt toxicity based on body weights” value was “no evidence of overt toxicity”. Also, the “VEGF-induced angiogenesis (number of vessels, blood vessel area)” value in data set [1] (s.c. 1.0 or 0.1 mg/rat/day for seven days after loading dose 3.0 or 0.3 mg, p<0.04) is “significantly inhibited VEGF-induced angiogenesis in a dose-dependent manner”. In the data set on A431 tumor (s.c. once per day, 1000, 200, 40 and 8 ug/mouse/day, 20 doses), the “tumor growth vs. vehicle control” value is “inhibited tumor growth”.
Take “MGAQQEECEWDPWTCEHMLEGGGGG-Fc (MGAQQEECEWDPWTCEHMLEGGGGG-{Fc(5)}; not fully specified (bridges); printed as MGAQQEECEWDPWTCEHMLEGGGGG-Fc; cysteine pairing not given here) [Con4 (N)]”: the “hAng-1 IC 50” value with hAng-1 [2] is on record as “No In-”. For the same molecule, the “hAng-1 EC 50” value with hAng-1 [3] was “No”. In the data set with hAng-2, this molecule returned a hAng-2 ka of 330000 M⁻¹ s⁻¹ and a hAng-2 kd of 0.00022 s⁻¹. In the data set with mAng-2, this molecule returned a mAng-2 ka of 730000 M⁻¹ s⁻¹ and a mAng-2 kd of 0.00044 s⁻¹.

B1: M-Fc-GGGGGAQQEECEWDPWTCEHMGSGSATGGSGSTASSGSGSATHQEECEWDPWTCEHMLE (protein)
chain: M[Fc]GGGGGAQQEECEWDPWTCEHMGSGSATGGSGSTASSGSGSATHQEECEWDPWTCEHMLE
B1 displayed a ka in the data set with huAng2 of 480000 M⁻¹ s⁻¹. Besides, the kd in the data set with huAng2 came to 0.00016 s⁻¹. Also, the body weights result in the data set on Colo-205 tumor (Example 15), in the data set with Colo-205 tumor (Example 17) and in the data set with Colo-205 tumor (Example 19a) was “no significant effect on body weights” throughout. For the same molecule, the “tumor growth vs. vehicle control and control peptibody” value with Colo-205 tumor (Example 15: s.c. 14, 2.8 and 0.56 μg/mouse twice a week, p=0.003 intermediate dose, p<0.0001 high dose) is listed as “Significant differences in tumor growth were observed between the two higher doses”; in the data set with A431 tumor (200 μg/mouse/day s.c. from day 3), “Significant differences in tumor growth”. Moreover, the body weight entry in the data set on Colo-205 tumor (Example 16) is listed as “no significant effect on body weight”. The “tumor growth vs. time-matched control group” value in the data set on Colo-205 tumor (Example 16: s.c. 350 μg/day from day 3, harvested Day 18, p=0.0154) is “Significant differences in tumor growth”. Also, the “tumor growth vs. vehicle control” value with Colo-205 tumor (Example 17: 350 μg/mouse s.c. twice a week started at study day 3, 10 or 15, p=0.089 day 15 group, p<0.0001 day 3 and 10 groups, listed as 2×Con4-C) is “capable of inhibiting Colo205 tumor growth irrespective of when dosing begins; also recorded: Significant differences in tumor growth”; in the data set with Colo-205 tumor (Example 19a, from study day 14: 2×Con4-C 350 μg/mouse s.c. twice a week, taxotere 20 mg/kg qwx3 i.p., or both, p<0.0001), “Significant differences in tumor growth”; in the data set with Colo-205 tumor (Example 19b, from study day 14: 2×Con4-C 350 μg/mouse s.c. twice a week, 5-FU 50 mg/kg qdx5 i.p., or both, p<0.0001) it was “Significant differences in tumor growth”.
